The supplement of paper PMC12042874
± gives the uncertainty stated by the source.

Assay: amyloid nucleation score (Sup35N fusion, yeast selection) (log enrichment); library NNK1; higher = more nucleation; inactive = no reads after selection
Method in brief: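 Nucleation score is defined as the DiMSum log enrichment of output over input reads, with centring on the mode score of non-aggregating sequences. A minimum of 100 input reads was required for each sequence. Reads came from Illumina sequencing of plasmid inserts from psi-negative yeast expressing Sup35N fused to peptides of 20 random codons, induced with 100 μM copper sulfate for 24 hours and grown 7 days at 30°C on medium lacking adenine and uracil.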

Substance | amyloid nucleation score
CSPVYIEFRLRQVFVARA | 1.26 ± 0.76
VVHLSLCMRCALWRYRELVC | 1.12 ± 0.55
GRRYELPGPSPYCVRDSGRR | -0.301 ± 0.65
GICHSPGWCC | 2.69 ± 0.14
VSLVAGTWFYFWHNALVTYH | -0.067 ± 0.36
DCVSHAGQRGIMCRSGSLRF | -0.138 ± 0.64
AMQGACGFISGGFSVARVFV | 0.296 ± 0.25
RSYGGLIKFNHVSDTL | -0.429 ± 0.93
LLLFFNYNLSVIWWVYGRKS | 1.23 ± 0.47
IVVLLKNRS | 0.488 ± 0.47
NEHQVNEG | 0.478 ± 0.48
RIGFPVRYEEFALRFIYILE | -0.261 ± 0.72
FTLRSDVAQQVIDDMGAVGS | -1.11 ± 1.5
RAAYACWHFTLYNFSLIVTT | 1.83 ± 0.57
RVNIV | -0.624 ± 0.48
MTEQVAANAEDWSVVGNWLV | 0.43 ± 0.5
NIHGDGWSYVLNAIGSELD | 0.154 ± 0.43
ASCVGNINDCRPNIAFWVEE | 0.984 ± 0.84
ENERMTLHCGYFKNMCMFRF | 1.9 ± 0.22
SIWKRLYFQVNGL | 0.925 ± 0.92
FRYVDALHDRSSYIQIGKRI | -0.423 ± 1.5
HTWNPDYVAECFKEFKRLYK | 0.393 ± 0.61

Substance | amyloid nucleation score
ENKLNSPPWMLSLFTFLIVV | -0.242 ± 0.66
LHRYNYLVYRSTKCMFGVLI | 0.222 ± 0.52
MHMGFAWMSLIM | inactive
PWYTSLEIKRSEETCKAMPF | 0.302 ± 0.41
IITMIP | -0.514 ± 0.65
GASRVTNYRELLMASANHDG | -0.413 ± 0.45
STCNYLDSGGRDRCSFFNCD | 0.078 ± 0.47
ISQVIGSRILPRPTEQVA | -1.96 ± 1.3
MRASTFNYSYELKINVVCYT | -0.918 ± 0.53
FKGRNSFPLLDSWVIHRIGI | 0.422 ± 0.9
YISFHTTSYRFRLYRLL | 0.894 ± 0.17
FRFMVLGLVSLGIGV | -0.59 ± 0.62
ESSNLYYYRTSHKKKTTLCS | -0.639 ± 1.7
SYYQKCNAKNIF | -0.576 ± 0.4
DYRIEVSLSVVYCFGLNMRN | 2.38 ± 0.082
FISPFCIVSYIIC | 5.846 ± 0.054
IICSLW | 0.614 ± 0.34
MRTDFERHIVSYVSELCKLP | -0.162 ± 0.73
VRGSVLCHRSLHETKNFL | 0.279 ± 0.38
TGFLR | 0.12 ± 0.4
GRMTILSVNSS | 0.328 ± 0.46
MGILW | -0.328 ± 0.66

Substance | amyloid nucleation score
CWGLRLLSFVRRLV | 0.749 ± 1
HKNLQIVTFFVEYVSETPPG | -1.05 ± 1
FFWHVS | 0.091 ± 0.65
GYFYFRQIIQSDRPFIYNIP | -0.16 ± 0.38
SLWNSCSSE | 4.68 ± 0.064
FIVDLWCMLFNSILAGCVVV | -0.008 ± 0.21
YKLRFNILASMDNRMKLKWL | -0.899 ± 0.81
FDIFVDLFFMGALSMRPAAQ | -0.241 ± 1.1
IYNLNVISSVCESTRCRQTA | 7.08 ± 0.078
ESHLRASAGLWLSAGRDCNG | 1.38 ± 0.63
YNVWVWCERGQC | 4.5 ± 0.1
DNTIYDSMCFDAGNPDLCIH | 0.439 ± 0.23
WRGCVNFCEKKPGVGVSSV | 0.076 ± 0.55
GLGVIVVCPVCGSKGVCGKW | -0.914 ± 1.4
FELTVGIWQHWRT | 0.45 ± 0.5
NSLCYVVWVVVMTVNYYHHW | 0.557 ± 0.5
IAMLSCQRWMCQQTVTSKF | -1.29 ± 0.77
WQLTGISIWARFMFYVWQGK | -1.34 ± 0.92
TCQFFRLSNRILQGDYSILM | -0.342 ± 0.48
TISLL | 0.13 ± 0.43
EKIQINQKG | 1.04 ± 0.66
WSIKFQS | -0.123 ± 0.49

Substance | amyloid nucleation score
YHNGDYCCVQFTTGSWVVRW | 0.391 ± 0.28
AWFSISTRRIAIAWVILPCN | -0.398 ± 0.4
HHRVCSMKWSNCYELNVMGE | -0.429 ± 0.28
IEVKSWYATPNFGSQLSKRD | 0.274 ± 0.45
LTISTYSCWGEF | 0.456 ± 0.66
EWDSYMGPFAERMEYNVVFH | 0.398 ± 0.62
MTTHVRWFNGLMSP | inactive
SYNFWLRMAGRCSKM | -0.618 ± 0.6
LMLERFRLLYNEDFGGKVMF | 0.448 ± 0.47
VMTWTLCRTRG | -0.275 ± 0.4
ISDEIGIAIENKDSLRKGFR | 0.002 ± 0.84
HFTIKF | 1.06 ± 0.27
SCIYLNGSPVDEDGKYVHDF | inactive
SFFFKFYSDSFGNSTFQTID | -0.046 ± 0.31
KKNIWPLYSLRVRLYELAIS | -0.965 ± 1.7
CLVPAQGCYYGYLLTLMVER | -0.264 ± 0.52
VPCMWRFTHVSKYEGKSRTL | -0.452 ± 0.42
IGDTI | 0.302 ± 0.33
CYSRAYEEARSAI | 1.21 ± 0.76
CVNLFSLLFWTLAIRCLNFR | -0.025 ± 0.49
